# Data reported in article PMC10170137 (Nature Communications, 2023).
# Positions count from the first letter of the chain named. Names and notes keep the numbering of the source.
# B1: Denitrovibrio acetiphilus N-acetyl-γ-glutamyl phosphate reductase (DaArgC), wild type (enzyme)
# chain: MKVSVIGATGYTGYELVKILANHPEFEIAALVSETYADKMFSDVYPRLRSICDVVITGRDYDAVAEISDAVFLCLPHAAAQDAAAFFYEKGLKVVDFSADFRLKDKKLYEATYKVDHTYPDLLRKAVYGLPEIFEVDIKKAELVANPGCYPTSVITPLYPLLKAGLISPEGIIADSKSGVTGAGRKADIAYSFCECNEDFRPYAIFSHRHNPEINEVLKETGKETNVLFTPHLIPASKGIESTIYTKTTAGLAEISACLKDFYRERRCVRIYDNGHIPSTADVTDTNFIDIGLFVKGERLIIVSCIDNLIKGSSGMAVQNMNLMCGFDDTLGIL
# notes: N-acetyl-γ-glutamyl phosphate reductase (ArgC) of Denitrovibrio acetiphilus; also called WT DaArgC; Denitrovibrio acetiphilus N-acetyl-γ-glutamyl phosphate dehydrogenase; source: E. coli BL21 (DE3), purified (Ni-Sepharose HisTrap FF, Superdex 200 SEC)
# B2: DaArgC3, triple substitution variant (G182V, S178V, L233I) of Denitrovibrio acetiphilus N-acetyl-γ-glutamyl phosphate reductase (enzyme)
# chain: B1 chain with S178V, G182V, L233I
# notes: N-acetyl-γ-glutamyl phosphate reductase (ArgC) of Denitrovibrio acetiphilus with G182V, S178V and L233I; Found by iterative saturation mutagenesis of DaArgC; also called formyl phosphate reductase variant; source: E. coli BL21 (DE3), purified (Ni-Sepharose HisTrap FF, Superdex 200 SEC)
# B3: DaArgC (Denitrovibrio acetiphilus DSM 12809; G182V/L233I/S178V) (protein)
# chain: B1 chain with S178V, G182V, L233I
# notes: dimer
# B4: DaArgC (Denitrovibrio acetiphilus DSM 12809; G182V/S178V) (protein)
# chain: B1 chain with S178V, G182V
# notes: dimer
# B5: DaArgC (Denitrovibrio acetiphilus DSM 12809; G182V) (protein)
# chain: B1 chain with G182V
# notes: dimer
# Legend:
# EcGapA = target: T1, EcGapA (Escherichia coli, UniProt P0A9B2); test: Nash assay of formaldehyde; coupled to EcAckA; type: biochemical; conditions: formyl phosphate made in situ by 2 µM EcAckA from 50 mM ammonium formate and 5 mM ATP; 250 µM NAD(P)H, 1 mM CoA, 10 mM MgCl2, MOPS-KOH pH 7.0, 30 °C
# T1 construct: gene gapA
# T1 sequence (P0A9B2 2-331): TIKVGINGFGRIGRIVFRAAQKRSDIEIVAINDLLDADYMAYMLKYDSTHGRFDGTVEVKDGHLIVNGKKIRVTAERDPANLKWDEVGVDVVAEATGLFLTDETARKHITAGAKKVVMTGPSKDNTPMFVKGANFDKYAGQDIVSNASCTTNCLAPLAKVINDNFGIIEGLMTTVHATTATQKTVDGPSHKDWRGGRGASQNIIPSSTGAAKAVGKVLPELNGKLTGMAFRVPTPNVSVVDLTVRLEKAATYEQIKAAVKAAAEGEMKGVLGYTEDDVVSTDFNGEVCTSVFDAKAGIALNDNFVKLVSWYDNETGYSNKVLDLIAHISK
# EcProA = target: T2, EcProA (Escherichia coli, UniProt P07004); test: Nash assay of formaldehyde; coupled to EcAckA; type: biochemical; conditions: formyl phosphate made in situ by 2 µM EcAckA from 50 mM ammonium formate and 5 mM ATP; 250 µM NAD(P)H, 1 mM CoA, 10 mM MgCl2, MOPS-KOH pH 7.0, 30 °C
# T2 construct: gene proA
# T2 sequence (P07004 1-417): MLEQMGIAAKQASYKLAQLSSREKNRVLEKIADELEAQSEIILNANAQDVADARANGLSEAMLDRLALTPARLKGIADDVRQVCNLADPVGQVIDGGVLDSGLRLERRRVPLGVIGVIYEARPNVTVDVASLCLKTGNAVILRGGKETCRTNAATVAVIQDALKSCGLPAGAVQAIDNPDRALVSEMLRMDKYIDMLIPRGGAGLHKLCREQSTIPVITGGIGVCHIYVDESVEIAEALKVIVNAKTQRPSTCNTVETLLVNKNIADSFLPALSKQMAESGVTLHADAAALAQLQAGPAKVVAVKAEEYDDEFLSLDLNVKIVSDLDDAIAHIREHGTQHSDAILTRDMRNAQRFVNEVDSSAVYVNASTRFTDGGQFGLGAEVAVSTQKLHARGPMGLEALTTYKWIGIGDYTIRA
# EcASD = target: T3, EcASD (Escherichia coli, UniProt P0A9Q9); test: Nash assay of formaldehyde; coupled to EcAckA; type: biochemical; conditions: formyl phosphate made in situ by 2 µM EcAckA from 50 mM ammonium formate and 5 mM ATP; 250 µM NAD(P)H, 1 mM CoA, 10 mM MgCl2, MOPS-KOH pH 7.0, 30 °C
# T3 construct: gene asd
# T3 sequence (P0A9Q9 1-367): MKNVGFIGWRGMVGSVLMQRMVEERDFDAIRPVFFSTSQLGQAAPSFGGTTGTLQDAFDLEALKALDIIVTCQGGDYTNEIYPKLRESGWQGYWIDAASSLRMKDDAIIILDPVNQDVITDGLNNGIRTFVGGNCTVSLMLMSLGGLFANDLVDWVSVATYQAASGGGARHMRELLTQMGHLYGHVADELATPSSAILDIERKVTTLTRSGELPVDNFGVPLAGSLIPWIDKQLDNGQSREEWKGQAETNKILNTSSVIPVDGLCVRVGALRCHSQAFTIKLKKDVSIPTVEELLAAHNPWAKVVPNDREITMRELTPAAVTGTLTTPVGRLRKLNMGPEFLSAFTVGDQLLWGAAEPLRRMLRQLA
# EcArgC = target: T4, EcArgC (Escherichia coli, UniProt P11446); test: Nash assay of formaldehyde; coupled to EcAckA; type: biochemical; conditions: formyl phosphate made in situ by 2 µM EcAckA from 50 mM ammonium formate and 5 mM ATP; 250 µM NAD(P)H, 1 mM CoA, 10 mM MgCl2, MOPS-KOH pH 7.0, 30 °C
# T4 construct: gene argC
# T4 sequence (P11446 1-334): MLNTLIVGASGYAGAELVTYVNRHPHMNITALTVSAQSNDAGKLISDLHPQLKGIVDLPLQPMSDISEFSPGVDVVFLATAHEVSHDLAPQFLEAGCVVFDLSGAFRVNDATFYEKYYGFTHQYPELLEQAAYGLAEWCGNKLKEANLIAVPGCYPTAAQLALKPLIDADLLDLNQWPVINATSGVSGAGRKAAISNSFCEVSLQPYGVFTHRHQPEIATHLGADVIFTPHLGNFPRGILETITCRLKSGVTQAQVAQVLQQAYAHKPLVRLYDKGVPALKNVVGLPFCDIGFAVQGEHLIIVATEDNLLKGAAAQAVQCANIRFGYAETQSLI
# DaArgC [1] = target: T5, DaArgC (Denitrovibrio acetiphilus, UniProt D4H3H4, G182V/L233I/S178V); test: Nash assay of formaldehyde, inhibition of formyl phosphate reductase activity; coupled to EcAckA; type: biochemical; conditions: read-out: N-acetyl-γ-glutamate / IC50
# T5 construct: gene argC; dimer
# T5 sequence (D4H3H4 entry or part of it S178V/G182V/L233I): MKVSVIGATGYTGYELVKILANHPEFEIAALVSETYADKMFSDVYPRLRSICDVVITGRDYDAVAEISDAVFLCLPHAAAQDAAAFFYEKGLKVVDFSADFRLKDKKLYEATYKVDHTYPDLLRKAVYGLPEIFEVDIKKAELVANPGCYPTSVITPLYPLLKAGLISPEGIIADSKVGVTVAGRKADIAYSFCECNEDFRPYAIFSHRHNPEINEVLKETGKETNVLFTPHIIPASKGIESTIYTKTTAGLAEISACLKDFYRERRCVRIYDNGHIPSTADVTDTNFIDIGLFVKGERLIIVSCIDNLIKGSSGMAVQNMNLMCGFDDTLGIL
# From the text: (§1) Nash assay of formaldehyde, inhibition of formyl phosphate reductase activity; coupled to EcAckA on DaArgC
# DaArgC [2] = target: T6, DaArgC (Denitrovibrio acetiphilus, UniProt D4H3H4); test: as above; type: biochemical; conditions: read-out: N-acetyl-γ-glutamate / IC50
# T6 construct: gene argC; dimer
# T6 sequence (D4H3H4 1-334): B1 chain
# From the text: as §1
# [3] = substrate: NC(=O)C1=CN([C@@H]2O[C@H](COP(=O)(O)OP(=O)(O)OC[C@H]3O[C@@H](n4cnc5c(N)ncnc54)[C@H](OP(=O)(O)O)[C@@H]3O)[C@@H](O)[C@H]2O)C=CC1; test: Nash assay of formaldehyde, fluorescence; coupled to EcAckA; type: biochemical, Denitrovibrio acetiphilus; conditions: formyl phosphate made in situ by 10 µM EcAckA from 500 mM ammonium formate and 5 mM ATP, 10 mM MgCl2, MOPS-KOH pH 7.0, 30 °C, varied: cofactor
# From the text: (§2) Nash assay of formaldehyde, fluorescence; coupled to EcAckA on DaArgC
# [4] = target: the molecule itself; test: SEC; HiLoad 16/600 Superdex 200 pg in SEC buffer (75 mM KCl, 25 mM HEPES-KOH pH 7.8), loaded straight after Ni affinity purification, before crystallisation
# [5] = substrate: O=COP(=O)(O)O; test: Nash assay of formaldehyde, initial slopes, synthetic formyl phosphate; type: biochemical, Denitrovibrio acetiphilus; conditions: 1 mM NADPH, 10 mM MgCl2, MOPS pH 7.0, 30 °C, freshly synthesized crude formyl phosphate
# From the text: Nash assay of formaldehyde, initial slopes, synthetic formyl phosphate on […]
# [6] = substrate: NC(=O)C1=CN([C@@H]2O[C@H](COP(=O)(O)OP(=O)(O)OC[C@H]3O[C@@H](n4cnc5c(N)ncnc54)[C@H](O)[C@@H]3O)[C@@H](O)[C@H]2O)C=CC1; test: Nash assay of formaldehyde, fluorescence; coupled to EcAckA; type: biochemical, Denitrovibrio acetiphilus; conditions: formyl phosphate made in situ by 10 µM EcAckA from 250 mM ammonium formate and 5 mM ATP, 10 mM MgCl2, MOPS-KOH pH 7.0, 30 °C, varied: cofactor
# From the text: as §2
Molecule,Km [3] [µM],kcat [3] [s⁻¹],kcat/Km [3] [M⁻¹ s⁻¹],Km [5] [µM],kcat [5] [s⁻¹],kcat/Km [5] [M⁻¹ s⁻¹],Km [6] [µM],kcat [6] [s⁻¹],kcat/Km [6] [M⁻¹ s⁻¹],further results
O=COP(=O)(O)O [formyl phosphate],–,–,–,–,–,–,–,–,–,"Nash assay of formaldehyde; coupled to EcAckA (EcGapA): EcArgC and EcGapA performed best under the chosen conditions; Nash assay of formaldehyde; coupled to EcAckA (EcProA): (EcASD, EcArgC, EcGapA, EcProA), we detected FPR activity in all cases; Nash assay of formaldehyde; coupled to EcAckA (EcASD): (EcASD, EcArgC, EcGapA, EcProA), we detected FPR activity in all cases; Nash assay of formaldehyde; coupled to EcAckA (EcArgC): EcArgC and EcGapA performed best under the chosen conditions"
CC(=O)N[C@@H](CCC(=O)O)C(=O)O [N-acetyl-γ-glutamate],–,–,–,–,–,–,–,–,–,IC50 (DaArgC [1]): 24.6 ± 7.9 mM; IC50 (DaArgC [2]): 5.1 ± 1 mM
B1,160 ± 20,0.66 ± 0.03,4100,–,–,–,–,–,–,binding result [4]: binds
B2,–,–,–,–,–,–,–,–,–,binding result [4]: binds
B3,50 ± 10,0.23 ± 0.02,4600,18000 ± 7000,0.12 ± 0.02,4.6,340 ± 50,0.09 ± 0.00,260,–
B4,60 ± 20,0.26 ± 0.03,4300,38000 ± 9000,0.17 ± 0.02,3.1,300 ± 40,0.12 ± 0.00,400,–
B5,40 ± 10,0.14 ± 0.02,3500,31000 ± 7000,0.11 ± 0.01,2.4,280 ± 50,0.08 ± 0.00,280,–
